# Laboratory results: patent publication US20200399332A1 (published 2020)
# Experiments:
# [1] = target: the molecule itself; assay: self-association; non-reducing SDS-PAGE, Oriole staining
# Source text: To verify the possibility of the cysteine at amino acid number 168 and the cysteine at amino acid number 277 of wild-type human AIM shown in SEQ ID NO: 1 being involved in the multimerization of wild-type human rAIM, the inventors prepared mutant human rAIM in which the above-mentioned cysteines are substituted with different amino acids. First, to maintain the function of wild-type human rAIM, the amino acid to be used for substitution was studied. Since cysteine is hydrophilic (hydrogen bond can be formed), electric charge 0, and non-aromatic, serine, threonine, asparagine, glutamine were selected as 4 similar amino acids. […] The mutant human rAIM was prepared as follows. […] The purified and concentrated wild-type, 2CS, 3CS, 2/3CS human rAIM proteins, each 100 ng, were separated by SDS-PAGE under non-reducing conditions based on the difference in the molecular weights, Oriole staining was performed, and each human rAIM protein was detected.
# [2] = target: the molecule itself; assay: self-association; non-reducing SDS-PAGE, Oriole staining, 100 ng
# [3] = target: the molecule itself; assay: self-association; non-reducing SDS-PAGE, CBB staining
# Source text: The recovered culture supernatant was applied to an antibody column obtained by immobilizing mouse anti-human AIM monoclonal antibody (clone 7, autologously manufactured) on HiTrap NHS-activated HP column (GE Healthcare Life Sciences) to purify human rAIM. The human rAIM bound to the antibody column was eluted with 0.1 M glycine-HCl (pH2.5), and immediately neutralized with 1 M Tris-HCl (pH 8.5) to obtain human rAIM eluate. The buffer in the eluate was substituted with Dulbecco's Phosphate-Buffered Saline (DPBS) by using Amicon Ultra filter concentrators (Millipore) to perform concentration. The protein level of the human rAIM concentrate was quantified using Bcinchoninic acid (BCA) assay (Pierce), and the final concentration was adjusted to 2.0 mg/mL with DPBS. The wild-type human rAIM protein (1 μg) purified and concentrated as mentioned above was separated under non-reducing conditions by polyacrylamide gel electrophoresis (SDS-PAGE) based on the difference in the molecular weights, Coomassie Brilliant Blue (CBB) staining was performed, and wild-type human rAIM was detected.
# The wild-type mouse rAIM was prepared as follows. […] The protein level of the mouse rAIM concentrate was quantified using BCA assay, and the final concentration was adjusted to 2.0 mg/mL with DPBS. […]
Protein,binding result [1],binding result [2],binding result [3]
"mutant human AIM 2CS (cysteine 168 of SEQ ID NO: 1 substituted with serine) (other, Expressed transiently in HEK293T cells; also called 2CS human rAIM) VRLVGGLHRCEGRVEVEQKGQWGTVCDDGWDIKDVAVLCRELGCGAASGTPSGILYEPPAEKEQKVLIQSVSCTGTEDTLAQCEQEEVYDCSHDEDAGASCENPESSFSPVPEGVRLADGPGHCKGRVEVKHQNQWYTVCQTGWSLRAAKVVCRQLGCGRAVLTQKRSNKHAYGRKPIWLSQMSCSGREATLQDCPSGPWGKNTCNHDEDTWVECEDPFDLRLVGGDNLCSGRLEVLHKGVWGSVCDDNWGEKEDQVVCKQLGCGKSLSPSFRDRKCYGPGVGRIWLDNVRCSGEEQSLEQCQHRFWGFHDCTHQEDVAVICSG",binds,,
"mutant human AIM 3CS (cysteine 277 of SEQ ID NO: 1 substituted with serine) (other, Expressed transiently in HEK293T cells; also called 3CS human rAIM) VRLVGGLHRCEGRVEVEQKGQWGTVCDDGWDIKDVAVLCRELGCGAASGTPSGILYEPPAEKEQKVLIQSVSCTGTEDTLAQCEQEEVYDCSHDEDAGASCENPESSFSPVPEGVRLADGPGHCKGRVEVKHQNQWYTVCQTGWSLRAAKVVCRQLGCGRAVLTQKRCNKHAYGRKPIWLSQMSCSGREATLQDCPSGPWGKNTCNHDEDTWVECEDPFDLRLVGGDNLCSGRLEVLHKGVWGSVCDDNWGEKEDQVVCKQLGCGKSLSPSFRDRKSYGPGVGRIWLDNVRCSGEEQSLEQCQHRFWGFHDCTHQEDVAVICSG",binds,,
"mutant human AIM 2/3CS (cysteines 168 and 277 of SEQ ID NO: 1 substituted with serine) (other, Expressed transiently in HEK293T cells) VRLVGGLHRCEGRVEVEQKGQWGTVCDDGWDIKDVAVLCRELGCGAASGTPSGILYEPPAEKEQKVLIQSVSCTGTEDTLAQCEQEEVYDCSHDEDAGASCENPESSFSPVPEGVRLADGPGHCKGRVEVKHQNQWYTVCQTGWSLRAAKVVCRQLGCGRAVLTQKRSNKHAYGRKPIWLSQMSCSGREATLQDCPSGPWGKNTCNHDEDTWVECEDPFDLRLVGGDNLCSGRLEVLHKGVWGSVCDDNWGEKEDQVVCKQLGCGKSLSPSFRDRKSYGPGVGRIWLDNVRCSGEEQSLEQCQHRFWGFHDCTHQEDVAVICSG",,no binding,
"wild-type human recombinant AIM (apoptosis inhibitor of macrophage, CD5L) (other, Secreted from HEK293 / HEK293T cells; also called wild-type human rAIM; human rAIM) VRLVGGLHRCEGRVEVEQKGQWGTVCDDGWDIKDVAVLCRELGCGAASGTPSGILYEPPAEKEQKVLIQSVSCTGTEDTLAQCEQEEVYDCSHDEDAGASCENPESSFSPVPEGVRLADGPGHCKGRVEVKHQNQWYTVCQTGWSLRAAKVVCRQLGCGRAVLTQKRCNKHAYGRKPIWLSQMSCSGREATLQDCPSGPWGKNTCNHDEDTWVECEDPFDLRLVGGDNLCSGRLEVLHKGVWGSVCDDNWGEKEDQVVCKQLGCGKSLSPSFRDRKCYGPGVGRIWLDNVRCSGEEQSLEQCQHRFWGFHDCTHQEDVAVICSG",,,binds
"wild-type mouse recombinant AIM (other, Secreted from HEK293 / HEK293T cells; also called wild-type mouse rAIM; mouse rAIM) VQLVGGAHRCEGRVEVEHNGQWGTVCDDGWDRRDVAVVCRELNCGAVIQTPRGASYQPPASEQRVLIQGVDCNGTEDTLAQCELNYDVFDCSHEEDAGAQCENPDSDLLFIPEDVRLVDGPGHCQGRVEVLHQSQWSTVCKAGWNLQVSKVVCRQLGCGRALLTYGSCNKNTQGKGPIWMGKMSCSGQEANLRSCLLSRLENNCTHGEDTWMECEDPFELKLVGGDTPCSGRLEVLHKGSWGSVCDDNWGEKEDQVVCKQLGCGKSLHPSPKTRKIYGPGAGRIWLDDVNCSGKEQSLEFCRHRLWGYHDCTHKEDVEVICTDFDV",,,binds
"mutant mouse AIM 2CS (cysteine 168 of SEQ ID NO: 2 substituted with serine) (other, Expressed transiently in HEK293T cells; also called 2CS mouse rAIM) VQLVGGAHRCEGRVEVEHNGQWGTVCDDGWDRRDVAVVCRELNCGAVIQTPRGASYQPPASEQRVLIQGVDCNGTEDTLAQCELNYDVFDCSHEEDAGAQCENPDSDLLFIPEDVRLVDGPGHCQGRVEVLHQSQWSTVCKAGWNLQVSKVVCRQLGCGRALLTYGSSNKNTQGKGPIWMGKMSCSGQEANLRSCLLSRLENNCTHGEDTWMECEDPFELKLVGGDTPCSGRLEVLHKGSWGSVCDDNWGEKEDQVVCKQLGCGKSLHPSPKTRKIYGPGAGRIWLDDVNCSGKEQSLEFCRHRLWGYHDCTHKEDVEVICTDFDV",,no binding,
